This is an account of results in paper PMC9638971.

Assay [1] addresses lipase A (LipA) from Pseudomonas aeruginosa PAO1, wild type (P. aeruginosa PAO1) (UniProt P26876).
Assay [2] deals with fluorescein-5-maleimide-labelled wild-type lipase A (P. aeruginosa PAO1) (UniProt P26876).
Assay [3] addresses periplasmic chaperone FkpA of P. aeruginosa (P. aeruginosa PAO1). The assay can be described thus: SEC-MALS; isolated chaperones at 2 mg/ml, Superdex 200 Increase 10/300 GL; FkpA, SurA and PpiD in 50 mM KCl, 5 mM MgCl2, 20 mM HEPES-KOH pH 7.4; YfgM in 5 mM glycine, 20 mM NaCl, 5 mM Tris-HCl pH 8.5; Skp in 100 mM NaCl, 20 mM Tris-HCl pH 8.0; LipH in 100 mM NaCl, 200 µM TCEP, 50 mM Tris-HCl pH 8.0. (Size exclusion chromatography separates by hydrodynamic size, large species first.)

For assay [4], the target named is fluorescein-5-maleimide-labelled wild-type lipase A (P. aeruginosa PAO1) (UniProt P26876). The source holds these as a separate data set.
Assay [5] has as its target lipase A mutant LipA_(F144E) (P. aeruginosa PAO1) (UniProt P26876). The assay can be described thus: SEC-MALS; LipA_(F144E):Skp mixture (molar ratio 1:3) compared with Skp3 alone; SDS-PAGE and densitometry of the peak fractions.
For assay [6], the target named is periplasmic chaperone Skp of P. aeruginosa (P. aeruginosa PAO1). Put plainly: SEC-MALS; isolated chaperones at 2 mg/ml, Superdex 200 Increase 10/300 GL; FkpA, SurA and PpiD in 50 mM KCl, 5 mM MgCl2, 20 mM HEPES-KOH pH 7.4; YfgM in 5 mM glycine, 20 mM NaCl, 5 mM Tris-HCl pH 8.5; Skp in 100 mM NaCl, 20 mM Tris-HCl pH 8.0; LipH in 100 mM NaCl, 200 µM TCEP, 50 mM Tris-HCl pH 8.0.

The target is the same in assay [7]. Put plainly: SAXS; Skp at 1.20 mg/ml, 15 °C; ab initio reconstitution with P3 symmetry (GASBOR).
The target in assay [8] is lipase A (LipA) from Pseudomonas aeruginosa PAO1, wild type (P. aeruginosa PAO1) (UniProt P26876). This is another data set of the same source.
The target of assay [9] is fluorescein-5-maleimide-labelled lipase A mutant LipA_(F144E) (P. aeruginosa PAO1) (UniProt P26876). Put plainly: MST; FM-labelled LipA_(F144E) kept constant, Skp titrated (monomer concentrations); TGCG buffer with 0.05% Tween 20; 15 min at 22°C; Monolith NT.115.

The substance “lipase-specific foldase LipH lacking the TMD (domain or fragment)” yielded an inhibition of pNPB hydrolysis by wild-type LipA with LipH and Skp3 added simultaneously (LipA:LipH:chaperone 1:1:5, 50 mM NaCl) in [1] of less than 10%. Further, the soluble fraction of LipA in the sedimentation assay, 150 mM NaCl, LipA:LipH molar ratio 1:1 in assay [2] is more than 80%.

For “periplasmic chaperone FkpA of P. aeruginosa (natural protein)”, the stoichiometry N – broadly, the number of molecules, sites or subunits per partner or assembly – in assay [3] came out at 2.

“periplasmic chaperone Skp of P. aeruginosa (natural protein)”: the soluble fraction of LipA in the sedimentation assay at LipA:Skp3 molar ratios 1:10, 1:3 and 1:1; value at 1:10 and 1:3, dropped dramatically at 1:1 in assay [4] is more than 70%. In addition, in [5], the LipA:Skp3 ratio by densitometry of the peak fractions (Skp3 per LipA) is 3 and the stoichiometry N (Skp3 per LipA) amounted to 2. The same substance returned a stoichiometry N in assay [6] of 3. The same substance displayed a stoichiometry N in assay [7] of 3. For the same substance, the soluble fraction of LipA in the sedimentation assay, 150 mM NaCl, 0.5 µM LipA and 5 µM Skp3 in [2] is 66%. For the same substance, the decrease in ThT fluorescence of LipA aggregates in the presence of Skp3 (0.5 µM LipA, 5 µM Skp3) in assay [8] was 75%. Also, in assay [9], the KD of the first (high-affinity) binding mode worked out at 20 nM and the KD of the second (low-affinity) binding mode was 2000 nM.
